{"source": "paper PMC8865451", "about": "(Journal of Virology, 2021)", "binders": {"B1": {"name": "c19s130Fc (Fc fusion)", "chain": "ELLDPCGYISPESPVVQLHSNFTAVCVLKEKCMDYFHVNANYIVWKTNHFTIPKEQYTIINRTASSVTFTDIASLNIQLTCNILTFGQLEQNVYGITIISGLPPEKPKNLSCIVNEGKKMRCEWDGGRETHLETNFTLKSEWATHKFADCKAKRDTPTSCTVDYSTVYFVNIEVWVEAENALGKVTSDHINFDPVYKVKPNPPHNLSVINSEELSSILKLTWTNPSIKSVIILKYNIQYRTKDASTWSQIPPEDTASTRSSFTVQDLKPFTEYVFRIRCMKEDGKGYWSDWSEEASGITYEDDVQFVESGGGSVHAGGSLRLNCATSGYIYSTYCMGWFRQAPGKEREGVAHIYTNSGRTYYADSVKGRFTISQDNAKNTVYLQMNSLKPEDTAIYYCAARPSIRCASFSATEYKDWGQGTQVTVSSTGGGGSGGGGSGGGGTGQVQLQESGGGLVQAGGSLRLSCAASGRTFSEYAMGWFRQAPGKEREFVATISWSGGSTYYTDSVKGRFTISRDNAKNTVYLQMNSLKPDDTAVYYCAAAGLGTVVSEWDYDYDYWGQGTQVTVSS"}}, "biological_target": "hyper-IL-6 (HIL-6)", "sequence (A0N0L4 whole entry)": "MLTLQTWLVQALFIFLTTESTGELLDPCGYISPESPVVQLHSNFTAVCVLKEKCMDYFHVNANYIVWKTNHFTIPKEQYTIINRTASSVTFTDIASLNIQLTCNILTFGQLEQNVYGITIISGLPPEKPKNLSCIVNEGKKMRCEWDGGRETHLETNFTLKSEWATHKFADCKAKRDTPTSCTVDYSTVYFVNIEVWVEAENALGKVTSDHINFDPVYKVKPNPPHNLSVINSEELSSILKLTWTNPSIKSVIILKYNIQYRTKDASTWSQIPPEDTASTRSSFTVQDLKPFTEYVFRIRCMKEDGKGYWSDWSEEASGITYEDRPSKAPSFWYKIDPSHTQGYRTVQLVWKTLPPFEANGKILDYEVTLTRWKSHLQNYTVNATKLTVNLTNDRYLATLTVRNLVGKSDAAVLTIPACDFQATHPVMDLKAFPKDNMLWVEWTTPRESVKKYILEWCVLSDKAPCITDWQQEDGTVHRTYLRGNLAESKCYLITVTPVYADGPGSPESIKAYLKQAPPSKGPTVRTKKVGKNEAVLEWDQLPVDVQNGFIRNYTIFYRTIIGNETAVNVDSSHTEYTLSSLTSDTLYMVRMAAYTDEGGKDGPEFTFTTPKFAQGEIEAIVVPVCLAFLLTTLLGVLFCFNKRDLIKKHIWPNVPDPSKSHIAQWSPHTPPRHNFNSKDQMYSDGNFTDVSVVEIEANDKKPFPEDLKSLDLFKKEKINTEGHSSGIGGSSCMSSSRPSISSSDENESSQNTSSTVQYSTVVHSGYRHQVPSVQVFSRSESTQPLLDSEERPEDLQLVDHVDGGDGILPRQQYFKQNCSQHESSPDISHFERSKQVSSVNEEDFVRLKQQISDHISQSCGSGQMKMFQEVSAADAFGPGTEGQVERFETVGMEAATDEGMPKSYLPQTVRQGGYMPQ", "experiment": "SPR", "data": [{"binder": "B1", "values": [{"measurement": "Kd", "value": 0.055, "unit": "nM"}, {"measurement": "koff", "value": "7.1e-05", "unit": "s⁻¹"}]}]}
